Reference: IntAct's records for PubMed 19098916

target: brr2_yeast BRR2 (UniProt P32639)
Sequence (P32639 whole entry): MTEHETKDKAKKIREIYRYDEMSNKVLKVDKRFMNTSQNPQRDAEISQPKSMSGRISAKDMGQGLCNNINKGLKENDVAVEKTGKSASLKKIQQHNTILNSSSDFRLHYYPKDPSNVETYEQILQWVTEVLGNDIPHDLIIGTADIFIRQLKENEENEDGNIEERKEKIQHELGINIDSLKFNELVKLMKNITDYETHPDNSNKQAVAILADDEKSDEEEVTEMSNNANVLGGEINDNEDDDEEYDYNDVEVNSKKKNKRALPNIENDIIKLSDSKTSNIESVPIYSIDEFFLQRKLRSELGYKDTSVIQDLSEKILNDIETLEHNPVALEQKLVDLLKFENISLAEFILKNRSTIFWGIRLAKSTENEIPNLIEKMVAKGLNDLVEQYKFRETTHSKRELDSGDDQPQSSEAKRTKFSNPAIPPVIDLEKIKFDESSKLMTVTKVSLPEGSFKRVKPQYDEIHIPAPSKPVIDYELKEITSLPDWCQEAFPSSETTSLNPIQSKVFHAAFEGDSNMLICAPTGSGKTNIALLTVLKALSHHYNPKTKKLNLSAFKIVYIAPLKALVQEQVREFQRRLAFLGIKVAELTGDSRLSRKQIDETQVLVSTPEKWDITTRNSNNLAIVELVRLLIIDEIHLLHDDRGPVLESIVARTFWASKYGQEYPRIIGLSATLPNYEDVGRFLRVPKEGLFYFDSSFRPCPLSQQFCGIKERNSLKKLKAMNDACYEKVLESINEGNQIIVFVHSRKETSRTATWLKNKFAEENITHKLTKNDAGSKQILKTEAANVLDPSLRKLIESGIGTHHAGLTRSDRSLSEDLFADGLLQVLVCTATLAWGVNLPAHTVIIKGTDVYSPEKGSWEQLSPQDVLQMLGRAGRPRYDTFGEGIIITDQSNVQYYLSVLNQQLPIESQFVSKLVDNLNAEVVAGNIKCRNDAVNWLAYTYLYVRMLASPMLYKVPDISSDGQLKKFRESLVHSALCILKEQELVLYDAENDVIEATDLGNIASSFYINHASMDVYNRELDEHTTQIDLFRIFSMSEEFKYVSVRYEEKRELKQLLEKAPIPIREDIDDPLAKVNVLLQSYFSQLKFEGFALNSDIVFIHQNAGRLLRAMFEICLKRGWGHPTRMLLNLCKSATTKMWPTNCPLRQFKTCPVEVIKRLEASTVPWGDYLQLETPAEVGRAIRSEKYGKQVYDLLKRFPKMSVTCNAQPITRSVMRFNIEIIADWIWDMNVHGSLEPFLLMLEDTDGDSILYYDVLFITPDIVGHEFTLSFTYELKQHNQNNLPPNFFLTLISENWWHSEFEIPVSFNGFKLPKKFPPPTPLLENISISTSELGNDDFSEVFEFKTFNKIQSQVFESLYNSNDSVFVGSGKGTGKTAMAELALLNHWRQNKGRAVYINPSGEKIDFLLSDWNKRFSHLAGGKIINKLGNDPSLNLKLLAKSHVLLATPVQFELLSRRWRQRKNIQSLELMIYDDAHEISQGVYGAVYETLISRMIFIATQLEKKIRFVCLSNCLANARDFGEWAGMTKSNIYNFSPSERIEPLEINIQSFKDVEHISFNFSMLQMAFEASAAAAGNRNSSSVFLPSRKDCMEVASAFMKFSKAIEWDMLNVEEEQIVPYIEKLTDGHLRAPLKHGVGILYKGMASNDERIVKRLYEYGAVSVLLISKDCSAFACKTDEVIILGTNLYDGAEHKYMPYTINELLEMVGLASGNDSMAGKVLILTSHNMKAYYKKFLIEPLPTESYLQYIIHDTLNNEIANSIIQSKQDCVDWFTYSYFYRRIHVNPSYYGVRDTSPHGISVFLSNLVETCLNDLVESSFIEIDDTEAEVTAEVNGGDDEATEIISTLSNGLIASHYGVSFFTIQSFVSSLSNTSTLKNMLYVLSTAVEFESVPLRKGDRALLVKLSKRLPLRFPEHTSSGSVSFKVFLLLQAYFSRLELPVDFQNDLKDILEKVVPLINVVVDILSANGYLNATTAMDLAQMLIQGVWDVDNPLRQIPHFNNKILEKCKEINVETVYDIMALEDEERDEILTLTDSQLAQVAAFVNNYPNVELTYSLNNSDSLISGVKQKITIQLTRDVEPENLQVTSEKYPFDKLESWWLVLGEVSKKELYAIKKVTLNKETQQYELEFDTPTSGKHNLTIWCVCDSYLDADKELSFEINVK

Chain of Pre-mRNA-splicing factor 8 (Saccharomyces cerevisiae), P33334 R2388G (P33334 whole entry R2388G): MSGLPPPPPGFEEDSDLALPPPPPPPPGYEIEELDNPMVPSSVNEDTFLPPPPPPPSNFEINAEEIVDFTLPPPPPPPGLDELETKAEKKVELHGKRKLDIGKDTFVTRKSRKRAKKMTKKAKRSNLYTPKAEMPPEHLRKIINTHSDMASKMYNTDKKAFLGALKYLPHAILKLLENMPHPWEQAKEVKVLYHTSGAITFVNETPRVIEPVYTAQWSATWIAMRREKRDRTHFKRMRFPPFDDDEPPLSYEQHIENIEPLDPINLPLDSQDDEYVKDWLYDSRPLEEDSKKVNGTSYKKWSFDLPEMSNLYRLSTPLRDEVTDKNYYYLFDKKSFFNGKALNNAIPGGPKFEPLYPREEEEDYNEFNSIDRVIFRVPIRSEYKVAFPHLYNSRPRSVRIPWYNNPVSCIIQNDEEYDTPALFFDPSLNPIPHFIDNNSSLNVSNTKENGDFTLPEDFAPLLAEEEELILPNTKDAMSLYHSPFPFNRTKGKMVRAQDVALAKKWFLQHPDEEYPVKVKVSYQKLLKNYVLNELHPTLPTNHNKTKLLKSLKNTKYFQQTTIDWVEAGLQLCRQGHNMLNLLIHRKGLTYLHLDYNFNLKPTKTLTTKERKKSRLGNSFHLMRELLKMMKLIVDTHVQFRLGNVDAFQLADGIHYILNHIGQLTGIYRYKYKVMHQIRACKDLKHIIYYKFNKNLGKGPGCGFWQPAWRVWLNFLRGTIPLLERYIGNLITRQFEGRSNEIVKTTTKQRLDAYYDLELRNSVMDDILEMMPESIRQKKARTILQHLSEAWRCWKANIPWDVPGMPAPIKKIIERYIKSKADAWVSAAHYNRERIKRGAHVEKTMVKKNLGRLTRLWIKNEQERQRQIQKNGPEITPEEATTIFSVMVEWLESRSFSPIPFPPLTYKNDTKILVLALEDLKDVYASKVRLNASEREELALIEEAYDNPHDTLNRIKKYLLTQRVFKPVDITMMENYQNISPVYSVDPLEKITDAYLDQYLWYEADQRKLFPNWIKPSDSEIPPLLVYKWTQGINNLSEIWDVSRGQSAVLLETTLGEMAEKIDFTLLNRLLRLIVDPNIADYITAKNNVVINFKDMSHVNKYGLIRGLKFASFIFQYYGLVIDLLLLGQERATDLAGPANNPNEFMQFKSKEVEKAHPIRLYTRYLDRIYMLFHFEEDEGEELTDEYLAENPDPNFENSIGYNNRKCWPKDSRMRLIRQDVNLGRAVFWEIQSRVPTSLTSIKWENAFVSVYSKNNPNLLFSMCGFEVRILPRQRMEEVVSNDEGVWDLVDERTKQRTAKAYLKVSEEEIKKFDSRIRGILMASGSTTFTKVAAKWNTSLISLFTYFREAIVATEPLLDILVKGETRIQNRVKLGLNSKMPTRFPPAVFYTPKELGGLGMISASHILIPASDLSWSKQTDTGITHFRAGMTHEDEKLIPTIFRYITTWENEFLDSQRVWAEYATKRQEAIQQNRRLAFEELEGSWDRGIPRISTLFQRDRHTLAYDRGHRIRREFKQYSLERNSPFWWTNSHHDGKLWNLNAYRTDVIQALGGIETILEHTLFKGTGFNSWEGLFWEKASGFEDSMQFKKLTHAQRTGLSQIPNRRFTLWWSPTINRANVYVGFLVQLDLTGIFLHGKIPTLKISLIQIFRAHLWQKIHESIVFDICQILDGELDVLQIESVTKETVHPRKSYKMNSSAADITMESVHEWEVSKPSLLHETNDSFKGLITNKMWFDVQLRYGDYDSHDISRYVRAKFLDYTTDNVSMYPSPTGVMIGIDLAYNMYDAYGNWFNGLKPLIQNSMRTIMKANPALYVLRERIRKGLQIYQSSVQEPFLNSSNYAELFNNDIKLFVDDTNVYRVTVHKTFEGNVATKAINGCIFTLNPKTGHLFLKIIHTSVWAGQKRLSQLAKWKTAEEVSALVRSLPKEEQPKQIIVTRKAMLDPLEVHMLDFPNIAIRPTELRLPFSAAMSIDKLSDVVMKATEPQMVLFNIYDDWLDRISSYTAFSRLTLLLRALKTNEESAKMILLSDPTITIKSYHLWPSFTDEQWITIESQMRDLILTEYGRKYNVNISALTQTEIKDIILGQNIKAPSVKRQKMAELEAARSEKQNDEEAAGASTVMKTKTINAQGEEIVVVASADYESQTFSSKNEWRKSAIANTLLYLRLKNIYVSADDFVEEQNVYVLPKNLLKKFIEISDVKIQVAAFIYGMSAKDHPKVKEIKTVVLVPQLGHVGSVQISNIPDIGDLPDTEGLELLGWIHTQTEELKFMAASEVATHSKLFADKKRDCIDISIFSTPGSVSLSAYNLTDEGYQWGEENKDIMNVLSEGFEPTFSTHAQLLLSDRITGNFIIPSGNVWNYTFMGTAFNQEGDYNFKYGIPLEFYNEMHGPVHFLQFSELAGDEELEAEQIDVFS

Effect of a mutation on the interaction, disrupting interaction strength:
Pre-mRNA-splicing factor 8 (Saccharomyces cerevisiae), P33334 H2387P
Pre-mRNA-splicing factor 8 (Saccharomyces cerevisiae), P33334 H2387R
Pre-mRNA-splicing factor 8 (Saccharomyces cerevisiae), P33334 R2388G
Pre-mRNA-splicing factor 8 (Saccharomyces cerevisiae), P33334 R2388K
